Results reported in patent US20100028347A1 (Eli Lilly, published 2010).

Columns and labels:
[1] = molecular target: T1, native VEGFR-1 expressed on the cell surface (human, UniProt P17948 27-1338); test: cell-based or functional assay
[2] = molecular target: T2, human VEGFR-2 alkaline phosphatase (human, UniProt P35968 20-764); test: ELISA: antibody dilutions on plate coated with 1 µg/ml human VEGFR-2 alkaline phosphatase, HRP secondary, O.D. 450
T2 construct: also called huVEGFR-2-AP; not shown: alkaline phosphatase fusion partner; not described
T2 sequence (P35968 20-764): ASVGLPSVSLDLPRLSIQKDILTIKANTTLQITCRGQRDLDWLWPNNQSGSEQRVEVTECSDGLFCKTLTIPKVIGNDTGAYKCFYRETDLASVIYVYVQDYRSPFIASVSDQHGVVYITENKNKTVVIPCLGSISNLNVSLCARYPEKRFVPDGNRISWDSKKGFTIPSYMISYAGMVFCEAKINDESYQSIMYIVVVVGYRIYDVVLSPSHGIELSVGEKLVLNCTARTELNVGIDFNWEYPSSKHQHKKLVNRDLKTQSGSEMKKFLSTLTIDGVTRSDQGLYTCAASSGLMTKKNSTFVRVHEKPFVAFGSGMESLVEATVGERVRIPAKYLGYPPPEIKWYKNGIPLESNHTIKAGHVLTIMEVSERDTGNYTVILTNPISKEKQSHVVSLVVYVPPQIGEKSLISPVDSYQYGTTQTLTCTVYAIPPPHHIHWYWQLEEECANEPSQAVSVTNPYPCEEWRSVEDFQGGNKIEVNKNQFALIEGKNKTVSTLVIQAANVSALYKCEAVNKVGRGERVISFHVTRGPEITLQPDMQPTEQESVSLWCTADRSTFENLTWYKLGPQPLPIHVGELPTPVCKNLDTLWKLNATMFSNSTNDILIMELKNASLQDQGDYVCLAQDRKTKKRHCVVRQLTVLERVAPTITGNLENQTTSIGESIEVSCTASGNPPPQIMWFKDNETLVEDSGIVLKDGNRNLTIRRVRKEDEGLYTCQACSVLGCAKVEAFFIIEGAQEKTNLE
Method: (§1) To determine the specificity of an anti-VEGFR-1 monoclonal antibody to human VEGFR-I, purified antibodies 18F1 were tested in an ELISA-based assay. One μg/ml of recombinant human VEGFR-I Fc, mouse VEGFR-I Fc, mouse VEGFR-2 Fc, or human VEGFR-2 alkaline phosphatase was coated with PBS in a 96-well microtiter plates at 4° C. over night. After wash, the receptor coated plates were blocked with PBS containing 5% Dry Milk and 0.05% Tween 20. Serial dilutions of primary antibody 18F1 to human VEGFR-I, MF1 to mouse VEGFR-I, IC1 1 to human VEGFR-2, or DClOl to mouse VEGFR-2 were incubated in the receptor-coated plates for 30 minutes. After wash secondary anti-primary HRP conjugate antibodies was incubated in the plates for 30 minutes. Plates were washed and incubated with the substrate TMB (3,3′,5,5′-tetra-methylbenzidine) for color development. The absorbance at 450 nm was read as OD values for quantification of binding activity of antibodies. Data were analyzed using a GraphPad Prism Software.

mouse VEGFR-1 Fc = molecular target: T3, mouse VEGFR-1 Fc (mouse, UniProt P35969 23-759, limits assumed); test: ELISA: antibody dilutions on plate coated with 1 µg/ml mouse VEGFR-1 Fc, HRP secondary, O.D. 450
T3 construct: not shown: Fc part; not described
T3 sequence (looked up): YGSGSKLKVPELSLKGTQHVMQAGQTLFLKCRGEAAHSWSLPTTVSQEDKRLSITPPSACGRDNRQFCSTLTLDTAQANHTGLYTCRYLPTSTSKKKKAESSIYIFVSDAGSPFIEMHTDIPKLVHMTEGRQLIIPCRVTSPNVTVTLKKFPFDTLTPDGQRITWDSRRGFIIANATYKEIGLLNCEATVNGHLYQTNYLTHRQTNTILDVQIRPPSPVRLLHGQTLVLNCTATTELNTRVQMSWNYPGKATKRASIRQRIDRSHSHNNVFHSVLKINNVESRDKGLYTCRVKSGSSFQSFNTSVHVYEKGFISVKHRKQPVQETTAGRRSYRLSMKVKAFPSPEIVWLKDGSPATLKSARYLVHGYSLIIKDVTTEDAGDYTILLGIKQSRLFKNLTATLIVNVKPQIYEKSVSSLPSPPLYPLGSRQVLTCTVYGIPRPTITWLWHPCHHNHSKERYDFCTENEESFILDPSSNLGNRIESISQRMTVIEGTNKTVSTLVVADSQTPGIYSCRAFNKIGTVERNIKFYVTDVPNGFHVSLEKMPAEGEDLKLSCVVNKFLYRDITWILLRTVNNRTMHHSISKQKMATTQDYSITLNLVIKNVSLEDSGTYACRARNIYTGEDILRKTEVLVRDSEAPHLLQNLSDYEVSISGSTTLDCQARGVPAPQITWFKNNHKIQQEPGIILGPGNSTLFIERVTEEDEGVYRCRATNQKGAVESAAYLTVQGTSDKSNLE
Method: as §1

[3] = molecular target: T4, recombinant human VEGFR-1 Fc (human, UniProt P17948-2 27-687, limits assumed); test: ELISA: antibody dilutions on plate coated with 1 µg/ml human VEGFR-1 Fc, HRP secondary, O.D. 450
T4 construct: Bought from R&D Systems; also called rhuVEGFR-1 Fc; HuVEGFR-I-Fc; not shown: Fc part
T4 sequence (P17948 other isoform, or with tags, fused parts or gaps limits assumed): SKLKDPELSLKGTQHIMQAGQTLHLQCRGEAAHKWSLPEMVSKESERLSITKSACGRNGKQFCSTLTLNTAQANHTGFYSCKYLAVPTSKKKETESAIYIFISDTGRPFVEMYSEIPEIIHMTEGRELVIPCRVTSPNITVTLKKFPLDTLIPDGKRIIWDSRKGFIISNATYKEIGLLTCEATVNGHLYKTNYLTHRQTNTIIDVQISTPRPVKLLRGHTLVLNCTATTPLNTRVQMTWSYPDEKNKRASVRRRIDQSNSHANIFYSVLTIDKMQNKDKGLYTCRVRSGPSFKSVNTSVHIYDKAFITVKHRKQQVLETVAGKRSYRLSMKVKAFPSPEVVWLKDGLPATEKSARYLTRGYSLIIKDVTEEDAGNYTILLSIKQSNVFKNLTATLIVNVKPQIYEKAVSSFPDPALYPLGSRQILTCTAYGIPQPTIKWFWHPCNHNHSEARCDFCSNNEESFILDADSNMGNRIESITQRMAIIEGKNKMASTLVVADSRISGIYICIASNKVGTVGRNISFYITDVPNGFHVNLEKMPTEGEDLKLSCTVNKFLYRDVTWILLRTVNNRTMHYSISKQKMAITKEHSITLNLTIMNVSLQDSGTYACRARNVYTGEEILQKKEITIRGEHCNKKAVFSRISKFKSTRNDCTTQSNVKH
Method: as §1

[4] = molecular target: T5, recombinant extracellular domain of VEGFR-1 (UniProt P17948 27-758, limits assumed); test: SPR, BIAcore 2000, VEGFR-1 extracellular domain immobilised at low density
T5 construct: extracellular domain
T5 sequence (P17948 27-758 limits assumed): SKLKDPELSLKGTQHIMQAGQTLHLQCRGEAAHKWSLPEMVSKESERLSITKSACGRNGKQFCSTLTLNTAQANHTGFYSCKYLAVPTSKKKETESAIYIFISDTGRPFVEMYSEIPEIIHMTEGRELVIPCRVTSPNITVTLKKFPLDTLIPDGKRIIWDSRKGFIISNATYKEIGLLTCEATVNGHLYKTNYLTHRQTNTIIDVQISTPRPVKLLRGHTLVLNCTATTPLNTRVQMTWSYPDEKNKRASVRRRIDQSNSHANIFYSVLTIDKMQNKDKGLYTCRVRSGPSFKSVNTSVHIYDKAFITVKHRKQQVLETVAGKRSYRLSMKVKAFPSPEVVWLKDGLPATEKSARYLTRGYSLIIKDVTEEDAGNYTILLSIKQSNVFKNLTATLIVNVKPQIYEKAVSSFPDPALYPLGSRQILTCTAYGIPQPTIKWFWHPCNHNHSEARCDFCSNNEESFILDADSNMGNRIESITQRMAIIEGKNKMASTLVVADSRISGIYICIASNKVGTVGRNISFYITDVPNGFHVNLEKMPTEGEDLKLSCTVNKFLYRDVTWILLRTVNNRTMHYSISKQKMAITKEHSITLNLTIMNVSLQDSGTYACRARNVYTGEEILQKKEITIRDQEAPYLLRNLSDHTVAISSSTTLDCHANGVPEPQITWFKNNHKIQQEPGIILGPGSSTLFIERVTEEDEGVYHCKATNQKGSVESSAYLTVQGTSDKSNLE
Method: Affinities of anti-VEGFR-1 antibody clones 6F9, 13 G12, 15F1 1, 18F1 were determined by plasmon resonance technology using BIAcore 2000 (Pharmacia, Piscataway, N.J.) according to the procedures provided by the manufacturer. Kinetic analyses of the antibodies were performed by immobilization of recombinant extracellular domain of VEGFR-I onto a sensor surface at a low density. The (kₒₙ) and dissociation (kₒ_{^ff}) rates were determined using the BIAevaluation 2.1 software provided by the manufacturer.

mouse VEGFR-1-AP = molecular target: T6, mouse VEGFR-1-AP (mouse, UniProt P35969 23-759); test: ELISA: plate coated with mouse VEGFR-1-AP 100 ng/well, goat anti-human kappa-HRP, O.D. 450
T6 construct: From ImClone Systems; also called mouse VEGFR-I-AP; not shown: alkaline phosphatase fusion partner; not described
T6 sequence (looked up): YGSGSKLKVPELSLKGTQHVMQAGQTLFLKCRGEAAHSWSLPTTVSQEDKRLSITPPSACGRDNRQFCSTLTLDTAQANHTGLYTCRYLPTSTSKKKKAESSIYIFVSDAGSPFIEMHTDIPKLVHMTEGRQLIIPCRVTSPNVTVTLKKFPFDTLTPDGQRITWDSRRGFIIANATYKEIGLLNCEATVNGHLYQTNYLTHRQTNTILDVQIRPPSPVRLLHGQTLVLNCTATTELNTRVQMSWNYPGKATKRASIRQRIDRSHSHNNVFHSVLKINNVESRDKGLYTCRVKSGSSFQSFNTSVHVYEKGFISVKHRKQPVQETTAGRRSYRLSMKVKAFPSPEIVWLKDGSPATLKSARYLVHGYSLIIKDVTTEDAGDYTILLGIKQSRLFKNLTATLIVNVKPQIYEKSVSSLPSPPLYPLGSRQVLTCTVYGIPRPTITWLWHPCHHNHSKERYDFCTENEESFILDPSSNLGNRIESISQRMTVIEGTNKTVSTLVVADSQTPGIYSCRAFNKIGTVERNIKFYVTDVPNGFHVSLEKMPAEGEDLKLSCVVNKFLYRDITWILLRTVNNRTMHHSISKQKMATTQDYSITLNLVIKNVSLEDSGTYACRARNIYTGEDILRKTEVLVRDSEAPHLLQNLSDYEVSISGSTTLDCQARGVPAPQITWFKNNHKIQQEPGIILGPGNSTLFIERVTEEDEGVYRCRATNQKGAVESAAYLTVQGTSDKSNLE

[5] = molecular target: T7, soluble recombinant human VEGFR-1 alkaline phosphatase (human, UniProt P17948 27-758); test: blocking ELISA: antibody preincubated with VEGFR-1 AP, binding to PlGF coated plate
T7 construct: Made in house in stably transfected cells; also called rhuVEGFR-I AP; VEGFR-I AP; not shown: alkaline phosphatase fusion partner
T7 sequence (P17948 27-758): as the sequence (P17948 27-758 limits assumed) above
Method: Specifically, hybridoma supernatants or purified antibodies were diluted in PBS with 5% FBS and 0.05% Tween 20 (ELISA buffer) and incubated in rhuVEGFR-I AP or AP coated 96-well microtiter plates for 30 minutes. Plates were washed with the ELISA buffer and incubated with goat anti-mouse IgG-horseradish peroxidase (HRP) conjugate (BioSource International, Camarillo, Calif.) for 30 minutes. TMB (3,3′,5,5′-tetra-methylbenzidine) substrate (Kierkegaard and Perry Lab, Inc., Gaithersburg, Md.) was used for color development following the manufacturer's instruction. The absorbance at 450 nanometers (nm) was read for quantification of binding activity of antibodies. For identification of the hybridomas producing anti-VEGFR-I antibodies, hybridoma supernatants were preincubated with VEGFR-I AP for 1 hour. The mixtures were incubated with the ELISA buffer in VEGF or P1GF coated 96-well microtiter plates for 1 hour. PNPP (p-nitrophenyl phosphate) substrate for AP was used for color development following the manufacturer's instruction. The absorbance at 405 nm was read for quantification of VEGFR-I binding to VEGF or P1GF. Optical density (OD) values were read on a microtiter plate reader (Molecular Devices Corp., Sunnyvale, Calif.). ED50 and IC50 of the antibodies were analyzed using GraphPad Prism 3 software (GraphPad Software, Inc., San Diego, Calif.).

[6] = molecular target: T1, native VEGFR-1 expressed on the cell …; test: cell-based or functional assay; remark: listed apart in the source

T1 sequence (P17948 27-1338): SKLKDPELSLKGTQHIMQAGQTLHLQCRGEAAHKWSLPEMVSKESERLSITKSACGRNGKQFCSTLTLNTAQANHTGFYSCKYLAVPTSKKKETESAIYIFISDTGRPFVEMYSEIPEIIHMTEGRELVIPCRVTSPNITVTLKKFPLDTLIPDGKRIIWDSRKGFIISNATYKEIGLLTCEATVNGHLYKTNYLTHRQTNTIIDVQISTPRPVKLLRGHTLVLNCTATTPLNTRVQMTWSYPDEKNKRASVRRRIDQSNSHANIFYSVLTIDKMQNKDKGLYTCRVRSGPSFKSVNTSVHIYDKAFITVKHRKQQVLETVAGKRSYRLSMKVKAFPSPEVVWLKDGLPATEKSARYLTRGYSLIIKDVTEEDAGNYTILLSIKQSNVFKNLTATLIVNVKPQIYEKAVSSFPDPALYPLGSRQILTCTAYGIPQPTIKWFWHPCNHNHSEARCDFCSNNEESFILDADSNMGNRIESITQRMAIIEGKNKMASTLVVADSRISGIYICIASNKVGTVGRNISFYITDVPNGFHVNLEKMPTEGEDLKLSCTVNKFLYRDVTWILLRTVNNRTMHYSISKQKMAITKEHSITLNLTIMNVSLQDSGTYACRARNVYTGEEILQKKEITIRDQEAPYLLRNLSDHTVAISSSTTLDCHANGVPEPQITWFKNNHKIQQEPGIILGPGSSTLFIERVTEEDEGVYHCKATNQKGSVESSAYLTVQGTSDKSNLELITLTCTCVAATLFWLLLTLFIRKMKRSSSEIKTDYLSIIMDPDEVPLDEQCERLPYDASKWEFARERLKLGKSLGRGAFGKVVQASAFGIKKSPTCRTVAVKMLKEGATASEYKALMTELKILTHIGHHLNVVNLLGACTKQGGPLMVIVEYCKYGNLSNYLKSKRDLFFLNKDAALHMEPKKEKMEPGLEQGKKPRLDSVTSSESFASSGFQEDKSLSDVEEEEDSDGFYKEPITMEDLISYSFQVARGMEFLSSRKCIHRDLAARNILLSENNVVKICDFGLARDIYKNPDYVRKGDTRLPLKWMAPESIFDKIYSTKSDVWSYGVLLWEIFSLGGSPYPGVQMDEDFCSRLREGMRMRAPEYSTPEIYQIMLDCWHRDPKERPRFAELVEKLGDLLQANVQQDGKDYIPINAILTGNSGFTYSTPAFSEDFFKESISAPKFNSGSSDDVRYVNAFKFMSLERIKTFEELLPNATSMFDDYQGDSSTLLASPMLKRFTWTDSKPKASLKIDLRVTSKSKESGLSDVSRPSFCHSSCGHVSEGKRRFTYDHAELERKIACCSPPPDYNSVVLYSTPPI

B1: anti-human VEGFR-1 antibody 18F1 (antibody, V domains shown)
VH: QAQVVESGGGVVQSGRSLRLSCAASGFAFSSYGMHWVRQAPGKGLEWVAVIWYDGSNKYYADSVRGRFTISRDNSENTLYLQMNSLRAEDTAVYYCARDHYGSGVHHYFYYGLDVWGQGTTVTVSS
VL: not shown
notes: Fully human antibody (gamma heavy chain, kappa light chain) from hybridomas of KM transgenic mice, purified; The light chain entry runs a few residues into the kappa constant region; also called MC-18F1; IMC-18F1
B1 was tested, and the “VEGF-A and P1GF stimulated proliferation of DU4475 breast carcinoma cells (estimated IC50)” value [1] was 30 to 50 nM, the binding result [2] was “no binding (tested: 1 µg/ml)” and the binding result (mouse VEGFR-1 Fc) was “no binding (tested: 1 µg/ml)”. The “EC50 (read off the curve)” value [3] was roughly 3 ng/mL, the Kd [4] was 0.054 nM and the kon [4] was 810000 M⁻¹ s⁻¹. The binding result (mouse VEGFR-1-AP) was “no binding (tested: 1 µg/mL)”, the IC50 [5] was 0.55 nM and the “Inhibition of PlGF-induced DU4475 cell growth in vitro (IC50)” value [6] was 24 nM.
